{"source": "patent US20180030151A1", "about": "(MOGAM INSTITUTE FOR BIOMEDICAL RESEARCH, published 2018)", "binders": {"B1": {"name": "clone 1202 (antibody, V domains shown)", "VH": "EVQLVESGGGLVKPGGSLRLSCAASGFTFSSYAMNWVRQAPGKGLEWVGTITTGGSYTYYADSVDGRFTISRDNAKNSLYLKMNSLRAEDTAVYYCARQDGNFLMDYWGQGTLVTVSS", "VL": "DVVMTQTPLSLPVTLGQPASISCKSSQSLLDIDGKTYLNWLQQRPGQSPKRLIYLVSKLDSGVPDRFTGSGSGTDFTLKISRVEAEDVGVYYCWQGTHFPFTFGQGTKVEIKR", "notes": "scFv on yeast at selection; human IgG4/kappa IgG as purified; also called No. 1202 antibody"}}, "key": {"[1]": {"target": "T1, recombinant human TFPI (tissue factor pathway inhibitor) (human, UniProt P10646 29-304)", "assay": "cell-based or functional assay"}, "[2]": {"target": "T1, recombinant human TFPI (tissue factor …)", "assay": "cell-based or functional assay", "remark": "listed apart in the source"}, "[3]": {"target": "T1, recombinant human TFPI (tissue factor …)", "assay": "cell-based or functional assay", "remark": "listed apart in the source"}, "[4]": {"target": "T1, recombinant human TFPI (tissue factor …)", "assay": "SPR, Biacore T-200; IgG captured on protein A (CM5), TFPI as analyte", "method": "Dissociation of the TFPI associated with the antibody was induced by running 10 mM glycine-HCl (pH 1.5) at a flow rate for 30 seconds. The affinities in terms of kinetic rate constants (Kₒₙ and Koff) and equilibrium dissociation constant (KD) were evaluated using Biacore T-200 evaluation software, and the results are shown in Table 24 below."}, "[5]": {"target": "T1, recombinant human TFPI (tissue factor …)", "assay": "cell-based or functional assay", "remark": "listed apart in the source"}}, "data": [{"binder": "B1", "values": [{"measurement": "% of Normalized, TF/FVIIa/FX complex assay, Ab 1.56 nM", "setting": "[1]", "result": 5.1, "unit": "%"}, {"measurement": "% of Normalized, TF/FVIIa/FX complex assay, Ab 3.13 nM", "setting": "[1]", "result": 6, "unit": "%"}, {"measurement": "% of Normalized, TF/FVIIa/FX complex assay, Ab 6.25 nM", "setting": "[1]", "result": 6.9, "unit": "%"}, {"measurement": "% of Normalized, TF/FVIIa/FX complex assay, Ab 12.5 nM", "setting": "[1]", "result": 10.7, "unit": "%"}, {"measurement": "% of Normalized, TF/FVIIa/FX complex assay, Ab 25 nM", "setting": "[1]", "result": 60, "unit": "%"}, {"measurement": "% of Normalized, TF/FVIIa/FX complex assay, Ab 50 nM", "setting": "[1]", "result": 99.4, "unit": "%"}, {"measurement": "% of Normalized, TF/FVIIa/FX complex assay, Ab 100 nM", "setting": "[1]", "result": 101, "unit": "%"}, {"measurement": "effect of inhibiting TFPI, FXa activity assay, Ab 10 nM", "setting": "[2]", "result": "~82", "unit": "%"}, {"measurement": "effect of inhibiting TFPI, FXa activity assay, Ab 20 nM", "setting": "[2]", "result": "~87", "unit": "%"}, {"measurement": "A405, TF/FVIIa/FX complex assay, Ab 1.56 nM", "setting": "[3]", "result": 0.043}, {"measurement": "A405, TF/FVIIa/FX complex assay, Ab 3.13 nM", "setting": "[3]", "result": 0.051}, {"measurement": "A405, TF/FVIIa/FX complex assay, Ab 6.25 nM", "setting": "[3]", "result": 0.059}, {"measurement": "A405, TF/FVIIa/FX complex assay, Ab 12.5 nM", "setting": "[3]", "result": 0.091}, {"measurement": "A405, TF/FVIIa/FX complex assay, Ab 25 nM", "setting": "[3]", "result": 0.509}, {"measurement": "A405, TF/FVIIa/FX complex assay, Ab 50 nM", "setting": "[3]", "result": 0.843}, {"measurement": "A405, TF/FVIIa/FX complex assay, Ab 100 nM", "setting": "[3]", "result": 0.859}, {"measurement": "Kd", "setting": "[4]", "result": 9.47, "unit": "pM"}, {"measurement": "FXa assay % of FXa alone, 2.5 nM Ab, 10 nM TFPI", "setting": "[5]", "result": 7.3, "unit": "%"}, {"measurement": "FXa assay % of FXa alone, 5 nM Ab, 10 nM TFPI", "setting": "[5]", "result": 46.2, "unit": "%"}, {"measurement": "FXa assay OD, 2.5 nM Ab, 10 nM TFPI", "setting": "[5]", "result": 0.0605}, {"measurement": "FXa assay OD, 5 nM Ab, 10 nM TFPI", "setting": "[5]", "result": 0.382}, {"measurement": "FXa assay OD, 10 nM Ab, 10 nM TFPI", "setting": "[5]", "result": 0.676}, {"measurement": "FXa assay OD, 20 nM Ab, 10 nM TFPI", "setting": "[5]", "result": 0.72}]}]}
